{"source": "paper PMC11443449", "about": "“NudCL2 is required for cytokinesis by stabilizing RCC2 with Hsp90 at the midbody” (Protein & Cell, 2024)", "binders": {"B1": {"name": "GST-NudCL2 (natural protein, human, UniProt Q8WVJ2 1-157, looked up)", "chain": "MSAPFEERSGVVPCGTPWGQWYQTLEEVFIEVQVPPGTRAQDIQCGLQSRHVALSVGGREILKGKLFDSTIADEGTWTLEDRKMVRIVLTKTKRDAANCWTSLLESEYAADPWVQDQMQRKLTLERFQKENPGFDFSGAEISGNYTKGGPDFSNLEK", "notes": "NudC-like protein 2 (NudCL2, NudCD2), human; Li et al., 2019; Yang et al., 2010, 2019) for the vector; also called NudC-like protein 2; NudC domain-containing protein 2; source: Escherichia coli BL21, purified"}}, "molecular_target": "T1, His-RCC2 (human, UniProt Q9P258 1-522)", "T1 construct": "Regulator of chromosome condensation 2 (RCC2), human, full length, cloned by PCR from pSA-RCC2 into pET-28a; pET-28a (His-tag vector, Novagen); also called regulator of chromosome condensation 2; telophase disc protein of 60 kDa; source: Escherichia coli BL21, purified", "T1 sequence (Q9P258 whole entry)": "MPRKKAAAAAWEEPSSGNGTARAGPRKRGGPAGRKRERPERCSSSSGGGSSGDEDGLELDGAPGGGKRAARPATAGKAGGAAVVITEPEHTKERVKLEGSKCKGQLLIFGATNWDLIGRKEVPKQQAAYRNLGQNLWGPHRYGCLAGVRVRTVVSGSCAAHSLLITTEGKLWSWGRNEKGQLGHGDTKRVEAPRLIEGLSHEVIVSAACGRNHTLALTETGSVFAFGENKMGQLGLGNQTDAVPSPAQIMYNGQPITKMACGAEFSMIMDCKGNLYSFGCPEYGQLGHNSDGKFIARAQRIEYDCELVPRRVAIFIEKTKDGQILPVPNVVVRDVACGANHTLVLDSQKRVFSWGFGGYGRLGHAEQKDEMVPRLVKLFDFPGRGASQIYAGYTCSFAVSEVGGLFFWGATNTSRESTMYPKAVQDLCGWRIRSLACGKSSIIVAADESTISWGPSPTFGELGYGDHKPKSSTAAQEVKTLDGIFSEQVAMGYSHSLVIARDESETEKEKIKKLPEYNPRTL", "assay": "pull-down; GST pull-down with purified GST, GST-NudCL2 and His-RCC2; incubated in PBS at 4°C for 4 h, then glutathione-agarose beads for 2 h; Western blot", "conditions": "both partners purified"}
{"binder": "B1", "values": [{"measurement": "binding result", "value": "binds"}]}
